Article PMC2747274 (2009)

Key:
Experiment in all cases: FP
[1] = target: fluorescently labeled histone H3 tail peptide, dimethylated at K9 (UniProt P68431, dimethyl-lysine at K9; fluorescent label (position not given))
[2] = target: fluorescently labeled histone H3 tail peptide, monomethylated at K27 (UniProt P68431, monomethyl-lysine at K27; fluorescent label (position not given))
[3] = target: fluorescently labeled histone H4 tail peptide, monomethylated at K20 (UniProt P62805, monomethyl-lysine at K20; fluorescent label (position not given))
[4] = target: fluorescently labeled histone H4 tail peptide, dimethylated at K20 (UniProt P62805, dimethyl-lysine at K20; fluorescent label (position not given))
[5] = target: fluorescently labeled histone H3 tail peptide, dimethylated at K27 (UniProt P68431, dimethyl-lysine at K27; fluorescent label (position not given))
[6] = target: fluorescently labeled histone H3 tail peptide, monomethylated at K9 (UniProt P68431, monomethyl-lysine at K9; fluorescent label (position not given))
[7] = target: fluorescently labeled histone H3 tail peptide, monomethylated at K4 (UniProt P68431, monomethyl-lysine at K4; fluorescent label (position not given))
[8] = target: fluorescently labeled histone H4 tail peptide, trimethylated at K20 (UniProt P62805, trimethyl-lysine at K20; fluorescent label (position not given))
[9] = target: fluorescently labeled histone H4 tail peptide, K20 unmodified (UniProt P62805, fluorescent label (position not given))
[10] = target: fluorescently labeled histone H3 tail peptide, dimethylated at K4 (UniProt P68431, dimethyl-lysine at K4; fluorescent label (position not given))

- Kd [1]: 550 µM
- Kd [2]: 244 µM
- Kd [3]: 7 µM
- Kd [4]: 13 µM
- Kd [5]: 185 µM
- Kd [6]: 152 µM
- Kd [7]: 126 µM
- Kd [8]: 680 µM
- Kd [9]: 480 µM
- Kd [10]: 145 µM
B1: human MBTD1 (Malignant Brain Tumor domain-containing protein 1) fragment composed of all four MBT repeats (residues 130-566) (domain or fragment)
chain: AKTKAAVSMEGFSWGNYINSNSFIAAPVTCFKHAPMGTCWGDISENVRVEVPNTDCSLPTKVFWIAGIVKLAGYNALLRYEGFENDSGLDFWCNICGSDIHPVGWCAASGKPLVPPRTIQHKYTNWKAFLVKRLTGAKTLPPDFSQKVSESMQYPFKPCMRVEVVDKRHLCRTRVAVVESVIGGRLRLVYEESEDRTDDFWCHMHSPLIHHIGWSRSIGHRFKRSDITKKQDGHFDTPPHLFAKVKEVDQSGEWFKEGMKLEAIDPLNLSTICVATIRKVLADGFLMIGIDGSEAADGSDWFCYHATSPSIFPVGFCEINMIELTPPRGYTKLPFKWFDYLRETGSIAAPVKLFNKDVPNHGFRVGMKLEAVDLMEPRLICVATVTRIIHRLLRIHFDGWEEEYDQWVDCESPDLYPVGWCQLTGYQLQPPASQSSR
